Reference: patent US20080044419A1, “Treatment of T Cell Mediated Diseases by Inhibition of Fgfr3” (Fibron Ltd., priority 2003, published 2008)
Residue numbers refer to the chain shown, from its start.

B1: PRO-001 (Fab, V domains shown)
VH: QVQLQQSGPGLVKPSQTLSLTCAISGDSVSSNSAAWNWIRQSPGRGLEWLGRTYYRSKWYNDYAVSVKSRITINPDTSKNQFSLQLNSVTPEDTAVYYCARSYYPDFDYWGQGTLVTVSS
VL: DIELTQPPSVSVAPGQTARISCSGDALGDKYASWYQQKPGQAPVLVIYDDSDRPSGIPERFSGSNSGNTATLTISGTQAEDEADYYCQSYDGPDLWVFGGGTKLTVLG
B2: PRO-029 (Fab, V domains shown)
VH: QVQLVQSGAEVKKPGASVKVSCKASGYTFTSYYMHWVRQAPGQGLEWMGWINPNSGGTNYAQKFQGRVTMTRDTSISTAYMELSSLRSEDTAVYYCARTWQYSYFYYLDGGYYFDIWGQGTLVTVSS
VL: DIVLTQSPATLSLSPGERATLSCRASQSVSSSYLAWYQQKPGQAPRLLIYGASSRATGVPARFSGSGSGTDFTLTISSLEPEDFATYYCQQTNNAPVTFGQGTKVEIKR
B3: PRO-026 (Fab, V domains shown)
VH: QVQLVQSGAEVKKPGASVKVSCKASGYTFTSYYMHWVRQAPGQGLEWMGWINPNSGGTNYAQKFQGRVTMTRDTSISTAYMELSSLRSEDTAVYYCARGYWYAYFTYINYGYFDNWGQGTLVTVSS
VL: DIALTQPASVSGSPGQSITISCTGTSSDVGGYNYVSWYQQHPGKAPKLMIYDVSNRPSGVSNRFSGSKSGNTASLTISGLQAEDEADYYCQSYDNNSDVVFGGGTKLTVLG
B4: PRO-002 (Fab, V domains shown)
VH: QVQLVQSGAEVKKPGASVKVSCKASGYTFTSYYMHWVRQAPGQGLEWMGWINPNSGGTNYAQKFQGRVTMTRDTSISTAYMELSSLRSEDTAVYYCARDFLGYEFDYWGQGTLVTVSS
VL: B1 VL with G92Y, P93S, D94A, L95D, W96Y
B5: PRO-001 Fab-dHLX (protein)
VH: B1 VH
VL: DIELTQPPSVSVAPGQTARISCSGDALGDKYASWYQQKPGQAPVLVIYDDSDRPSGIPERFSGSNSGNTATLTISGTQAEDEADYYCQSYDGPDLWVFGGGTKLTVLGQ
B6: PRO-002 Fab-dHLX (protein)
VH: B4 VH
VL: B5 VL with G92Y, P93S, D94A, L95D, W96Y
B7: PRO-029 Fab-dHLX (protein)
VH: B2 VH
VL: DIVLTQSPATLSLSPGERATLSCRASQSVSSSYLAWYQQKPGQAPRLLIYGASSRATGVPARFSGSGSGTDFTLTISSLEPEDFATYYCQQTNNAPVTFGQGTKVEIKRT
B8: PRO-021 Fab-dHLX (protein)
VH: QVQLVQSGAEVKKPGSSVKVSCKASGGTFSSYAISWVRQAPGQGLEWMGGIIPIFGTANYAQKFQGRTITADESTSTAYMELSSLRSEDTAVYYCARDNWFKPFSDVWGQGTLVTVSS
VL: not shown
B9: PRO-026 Fab-dHLX (protein)
VH: B3 VH
VL: DIALTQPASVSGSPGQSITISCTGTSSDVGGYNYVSWYQQHPGKAPKLMIYDVSNRPSGVSNRFSGSKSGNTASLTISGLQAEDEADYYCQSYDNNSDVVFGGGTKLTVLGQ
B10: PRO-055 Fab-dHLX (protein)
VH: QVQLVQSGAEVKKPGASVKVSCKASGYTFTSYYMHWVRQAPGQGLEWMGWINPNSGGTNYAQKFQGRVTMTRDTSISTAYMELSSLRSEDTAVYYCARSMNSTMYWYLRRVLFDHWGQGTLVTVSS
VL: B9 VL with N95M, N96Y, S97N, D98Y, V99I
B11: PRO-054 Fab-dHLX (protein)
VH: QVQLVQSGAEVKKPGASVKVSCKASGYTFTSYYMHWVRQAPGQGLEWMGWINPNSGGTNYAQKFQGRVTMTRDTSISTAYMELSSLRSEDTAVYYCARNMAYTNYQYVNMPHFDYWGQGTLVTVSS
VL: DIELTQPPSVSVAPGQTARISCSGDALGDKYASWYQQKPGQAPVLVIYDDSDRPSGIPERFSGSNSGNTATLTISGTQAEDEADYYCQSYDYFKLVFGGGTKLTVLGQ
B12: PRO-024 Fab-dHLX (protein)
VH: QVQLVQSGAEVKKPGSSVKVSCKASGGTFSSYAISWVRQAPGQGLEWMGGIIPIFGTANYAQKFQGRVTITADESTSTAYMELSSLRSEDTAVYYCARVNHWTYTFDYWGQGTLVTVSS
VL: not shown
B13: PRO-012 Fab-dHLX (protein)
VH: QVQLKESGPALVKPTQTLTLTCTFSGFSLSTSGVGVGWIRQPPGKALEWLALIDWDDDKYYSTSLKTRLTISKDTSKNQVVLTMTNMDPVDTATYYCARYHSWYEMGYYGSTVGYMFDYWGQGTLVTVSS
VL: DIELTQPPSVSVAPGQTARISCSGDALGDKYASWYQQKPGQAPVLVIYDDSDRPSGIPERFSGSNSGNTATLTISGTQAEDEADYYCQSYDFDFAVFGGTKLTVLGQ

Biological target: fibroblast growth factor receptor 3 (FGFR3) (UniProt P22607)
Assay: BIAcore

| Kd [nM] | Binder |
| --- | --- |
| 1.5 | B1 |

Biological target: fibroblast growth factor receptor 3 (FGFR3) (UniProt P22607)
Assay: FACS

| Kd [nM] | Binder |
| --- | --- |
| 0.7 | B1 |
| < 1 | B2 |
| 1.4 | B3 |
| 43 | B4 |

Biological target: fibroblast growth factor receptor 3 (FGFR3), P22607
Assay: cell-based or functional assay

| IC50 FGFR3 (FGF9), FDCP-FGFR3 proliferation assay performed with FGF9 [nM] | Binder |
| --- | --- |
| 19 | B5 |
| 360 | B6 |
| 20 | B7 |
| 50 | B8 |
| 70 | B9 |
| 34 | B10 |
| 45 | B11 |
| 70 | B12 |
| 58 | B13 |

Biological target: fibroblast growth factor receptor 3 (FGFR3) (UniProt P22607)
Assay: not stated (BIAcore presumably)

| koff [s⁻¹] | Binder |
| --- | --- |
| 0.00071 | B1 |
